Read-outs that look alike come from different tables or passages of the source.
Columns and labels:
Experiment in all cases: X-ray crystallography
[1] = molecular target: T1, AbdB homeodomain with W motif (crystal construct);Exd homeodomain (crystal construct) (Drosophila;Drosophila, UniProt P09087-2;P40427 ;, |)
[2] = molecular target: T1, AbdB homeodomain with W motif (crystal …); remark: listed apart in the source
[3] = molecular target: T1, AbdB homeodomain with W motif (crystal …); remark: listed apart in the source
[4] = molecular target: AbdB homeodomain with W motif (crystal construct) (Drosophila, UniProt P09087-2)
AbdB homeodomain with W motif (crystal construct), sequence (P09087 369-452): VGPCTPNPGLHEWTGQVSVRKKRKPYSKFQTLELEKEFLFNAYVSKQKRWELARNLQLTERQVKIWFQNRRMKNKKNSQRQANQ

[5] = molecular target: T1, AbdB homeodomain with W motif (crystal …); remark: listed apart in the source

T1 sequence (P09087 369-452, chain 1 of 2): as the sequence (P09087 369-452) above
T1 sequence (P40427 237-310, chain 2 of 2): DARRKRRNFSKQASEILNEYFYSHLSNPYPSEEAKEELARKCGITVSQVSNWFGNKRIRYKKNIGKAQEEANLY

B1: red (crystal) (dsDNA)
DNA 1: GCATGATTTATGAC
DNA 2: GTCATAAATCATGC
- binding result [1]: binds

B2: magenta (crystal) (dsDNA)
DNA 1: GCATGATTACGAC
DNA 2: GTCGTAATCATGC
- binding result [2]: binds

B3: blue (crystal) (dsDNA)
DNA 1: GCATGATTAATGAC
DNA 2: GTCATTAATCATGC
- binding result [3]: binds

B4: black (crystal) (dsDNA)
DNA 1: GCATGATAAATGAC
DNA 2: GTCATTTATCATGC
- binding result [4]: binds
- binding result [5]: binds
